Experimental data from the supplement of paper PMC10724198.
± gives the standard deviation of the averaged measurements.

Test system: Saccharomyces cerevisiae
Assay: protein stability index of tFT-peptide fusion (C-terminal peptide) (PSI (0-1 scale)); higher = more stable (slower turnover)
Details: temperature: 30 C
Procedure: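 MPS profiling in S. cerevisiae of the yeast C-terminome library: the last 12 aa of each annotated ORF are fused to the C-terminus of a sfGFP-mCherry timer, after a GGGS linker. Cells are FACS-sorted into 8 mCherry/sfGFP bins and deep-sequenced. PSI runs from 0 (unstable) to 1 (stable); wild type and das1Δ backgrounds, two technical replicates each.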

[1] = genetic background: das1 deletion

Row | Sequence | protein stability index [1] | protein stability index (genetic background: wild type)
1 | TASEIQRTKSSI [YGR035C C-terminal 12 aa] | 0.711 ± 0.03 | 0.683 ± 0.022
2 | TDEFDMLIGIDH [COG6 C-terminal 12 aa] | 0.697 ± 0.024 | 0.707 ± 0.025
3 | TDLENETFIYPL [YCT1 C-terminal 12 aa] | 0.722 ± 0.022 | 0.793 ± 0.072
4 | TDNTVYQKFLKY [ILV1 C-terminal 12 aa] | 0.674 ± 0.014 | 0.692 ± 0.041
5 | TDVKKFIHELCE [TRP3 C-terminal 12 aa] | 0.69 ± 0.014 | 0.679 ± 0.034
6 | TEKKINTRPPFR [DAM1 C-terminal 12 aa] | 0.7012 ± 0.0011 | 0.656 ± 0.011
7 | TEMATDASARMV [TPO4 C-terminal 12 aa] | 0.687 ± 0.0097 | 0.682 ± 0.0089
8 | TEPVKQVLGNKE [NMA1 C-terminal 12 aa] | 0.689 ± 0.012 | 0.675 ± 0.014
9 | TFFDIRQKFVVV [BOP2 C-terminal 12 aa] | 0.493 ± 0.012 | 0.44744 ± 0.00038
10 | TFLYYYFPLPTN [YPL080C C-terminal 12 aa] | 0.656 ± 0.029 | 0.69 ± 0.028
11 | TFPLVMMKTTYY [YFR009W-A C-terminal 12 aa] | 0.72 ± 0.065 | 0.697 ± 0.044
12 | TGTSNSVLVIIT [YPL136W C-terminal 12 aa] | 0.677 ± 0.013 | 0.684 ± 0.033
13 | THKKPGFENYSI [IRC13 C-terminal 12 aa] | 0.70632 ± 0.00041 | 0.704 ± 0.017
14 | TIAIGKIVKIAE [SUP35 C-terminal 12 aa] | 0.7085 ± 0.0052 | 0.685 ± 0.013
15 | TIIYPLFIFFSL [YMR105W-A C-terminal 12 aa] | 0.312 ± 0.022 | 0.225 ± 0.0044
16 | TISRLPPRSWTN [YCL042W C-terminal 12 aa] | 0.717 ± 0.037 | 0.739 ± 0.015
17 | TIYDGEAVAKYI [PRE5 C-terminal 12 aa] | 0.6775 ± 0.0025 | 0.7 ± 0.046
18 | TKAIEDAKKEMK [NUP2 C-terminal 12 aa] | 0.714 ± 0.013 | 0.737 ± 0.11
19 | TKISIRKAPKFF [MRPL31 C-terminal 12 aa] | 0.701 ± 0.019 | 0.656 ± 0.024
20 | TKNLVPGFSDLM [SEC61 C-terminal 12 aa] | 0.708 ± 0.012 | 0.676 ± 0.011
21 | TKNTCIRRLSNQ [YLR031W C-terminal 12 aa] | 0.709 ± 0.018 | 0.698 ± 0.036

Row | Sequence | protein stability index [1] | protein stability index (genetic background: wild type)
22 | TLISGKEDGPTI [SRY1 C-terminal 12 aa] | 0.69 ± 0.028 | 0.701 ± 0.044
23 | TLKKRFGLVPGQ [NOP10 C-terminal 12 aa] | 0.7141 ± 0.0036 | 0.686 ± 0.029
24 | TLKKVTQNFYFD [LMO1 C-terminal 12 aa] | 0.7094 ± 0.0054 | 0.6724 ± 0.0018
25 | TLVADQEDDVIF [VMA8 C-terminal 12 aa] | 0.7039 ± 0.0067 | 0.715 ± 0.025
26 | TLVGTPGYRITL [RCE1 C-terminal 12 aa] | 0.7168 ± 0.0018 | 0.695 ± 0.02
27 | TNDRLQSILHDL [MEF2 C-terminal 12 aa] | 0.7148 ± 0.0071 | 0.702 ± 0.013
28 | TNERQLNPWICN [YML090W C-terminal 12 aa] | 0.7061 ± 0.0031 | 0.688 ± 0.031
29 | TPDVLAAGPQFE [PCK1 C-terminal 12 aa] | 0.7065 ± 0.0036 | 0.6787 ± 0.0029
30 | TQKKVDQRWKKH [SEN54 C-terminal 12 aa] | 0.692 ± 0.016 | 0.737 ± 0.082
31 | TQLVQKALERFK [RIC1 C-terminal 12 aa] | 0.734 ± 0.025 | 0.676 ± 0.084
32 | TSDGSASDLEII [MCM10 C-terminal 12 aa] | 0.686 ± 0.0096 | 0.692 ± 0.024
33 | TSLEKQINSIKK [NSP1 C-terminal 12 aa] | 0.753 ± 0.036 | 0.70199 ± 0.0005
34 | TSNGGVEETMKM [ARX1 C-terminal 12 aa] | 0.6815 ± 0.00071 | 0.676 ± 0.025
35 | TSNSPSPDLMEK [SMA2 C-terminal 12 aa] | 0.7018 ± 0.0012 | 0.705 ± 0.042
36 | TSPPEGMEPKHW [SGT1 C-terminal 12 aa] | 0.696 ± 0.013 | 0.687 ± 0.0088
37 | TVIFSCVPGRRV [RAX1 C-terminal 12 aa] | 0.7205 ± 0.0062 | 0.709 ± 0.0011
38 | TVNYNDKTISGN [VPS30 C-terminal 12 aa] | 0.689 ± 0.022 | 0.692 ± 0.055
39 | TYNSYTEPEELR [FMP27 C-terminal 12 aa] | 0.692 ± 0.025 | 0.716 ± 0.05
40 | VAHRENLAFPPR [PRO1 C-terminal 12 aa] | 0.732 ± 0.02 | 0.707 ± 0.012
41 | VARRITDHTCLM [YLR364C-A C-terminal 12 aa] | 0.677 ± 0.0084 | 0.696 ± 0.031
42 | VCKFASWLFSKI [AMD2 C-terminal 12 aa] | 0.72 ± 0.041 | 0.6687 ± 0.005

Row | Sequence | protein stability index [1] | protein stability index (genetic background: wild type)
43 | VDHLTDPDIYIP [BUB2 C-terminal 12 aa] | 0.7 ± 0.017 | 0.7129 ± 0.0042
44 | VERNHPVITNIS [YCR087W C-terminal 12 aa] | 0.7114 ± 0.0043 | 0.733 ± 0.062
45 | VESPTLFCVCTQ [YPR170C C-terminal 12 aa] | 0.6115 ± 0.0024 | 0.66 ± 0.028
46 | VFWKLKSRKLRI [MCH1 C-terminal 12 aa] | 0.692 ± 0.0085 | 0.418 ± 0.033
47 | VGENNYYAESII [COS111 C-terminal 12 aa] | 0.714 ± 0.024 | 0.7022 ± 0.005
48 | VGRKPRLPKGKL [YCL002C C-terminal 12 aa] | 0.758 ± 0.021 | 0.842 ± 0.024
49 | VHPNWSPFEVFK [GCY1 C-terminal 12 aa] | 0.744 ± 0.033 | 0.738 ± 0.037
50 | VHTELLIYCHDE [ASR1 C-terminal 12 aa] | 0.7068 ± 0.006 | 0.6802 ± 0.0017
51 | VIKQQNHQTTKI [HKR1 C-terminal 12 aa] | 0.68 ± 0.037 | 0.705 ± 0.055
52 | VISLAAQSKYVQ [MCO6 C-terminal 12 aa] | 0.693 ± 0.019 | 0.697 ± 0.034
53 | VKDKVDAVYSSS [FAA1 C-terminal 12 aa] | 0.6925 ± 0.0045 | 0.678 ± 0.011
54 | VKKNKPSIESKC [GSH1 C-terminal 12 aa] | 0.688 ± 0.0086 | 0.762 ± 0.03
55 | VLESFLAPMVNQ [BET5 C-terminal 12 aa] | 0.688 ± 0.0073 | 0.71 ± 0.061
56 | VLIVLLVLAFIA [TLG1 C-terminal 12 aa] | 0.284 ± 0.013 | 0.286 ± 0.0034
57 | VMLLFIFLIMKL [PEP12 C-terminal 12 aa] | 0.186 ± 0.023 | 0.198 ± 0.01
58 | VMLNSVSISLNK [COG5 C-terminal 12 aa] | 0.711 ± 0.014 | 0.6577 ± 0.00017
59 | VNHNWYSIYEST [TFC3 C-terminal 12 aa] | 0.729 ± 0.013 | 0.681 ± 0.0081
60 | VPLIIDSSGSAN [FTH1 C-terminal 12 aa] | 0.718 ± 0.011 | 0.68 ± 0.0077
61 | VRLRGRKRSMLG [BUD32 C-terminal 12 aa] | 0.701 ± 0.02 | 0.665 ± 0.023
62 | VSGFKDEVLETV [RPS1B C-terminal 12 aa] | 0.679 ± 0.037 | 0.708 ± 0.029
63 | VTTTFDKVHQDW [LEU1 C-terminal 12 aa] | 0.715 ± 0.017 | 0.714 ± 0.058

Row | Sequence | protein stability index [1] | protein stability index (genetic background: wild type)
64 | VTVSNVWFNQLQ [YPL197C C-terminal 12 aa] | 0.70615 ± 0.00045 | 0.526 ± 0.014
65 | VVCMVVLLAVLS [VAM3 C-terminal 12 aa] | 0.148 ± 0.018 | 0.171 ± 0.012
66 | VVGEDEKDDFFE [EFG1 C-terminal 12 aa] | 0.721 ± 0.024 | 0.691 ± 0.026
67 | VVGRYMRSGLKK [NOP1 C-terminal 12 aa] | 0.6704 ± 0.005 | 0.682 ± 0.028
68 | VVNNRRQSRTPK [BLI1 C-terminal 12 aa] | 0.707 ± 0.044 | 0.661 ± 0.0082
69 | VVYRHLHTKVSK [HAL5 C-terminal 12 aa] | 0.682 ± 0.0075 | 0.658 ± 0.0043
70 | VYGRNGNESHST [YGR050C C-terminal 12 aa] | 0.701 ± 0.019 | 0.689 ± 0.017
71 | VYTSKTQYKFDI [YNR071C C-terminal 12 aa] | 0.6849 ± 0.0021 | 0.694 ± 0.062
72 | WFICRMLSKVTL [YNR003W-A C-terminal 12 aa] | 0.609 ± 0.012 | 0.595 ± 0.012
73 | WHKSQLEDMNGY [YHL012W C-terminal 12 aa] | 0.683 ± 0.005 | 0.6568 ± 0.0052
74 | WLPELALLCALD [LAS21 C-terminal 12 aa] | 0.614 ± 0.0098 | 0.633 ± 0.017
75 | WRKFGINSYSYS [DIA2 C-terminal 12 aa] | 0.734 ± 0.016 | 0.759 ± 0.075
76 | WRSIGSGPIMEF [BUG1 C-terminal 12 aa] | 0.706 ± 0.024 | 0.719 ± 0.031
77 | WSDKLLQIYARC [SAE2 C-terminal 12 aa] | 0.5447 ± 0.0049 | 0.516 ± 0.045
78 | WVAHSKTKLATK [CAB2 C-terminal 12 aa] | 0.677 ± 0.014 | 0.70267 ± 0.00017
79 | YANLLYKFWNDQ [PCL7 C-terminal 12 aa] | 0.735 ± 0.011 | 0.672 ± 0.021
80 | YASRGTGELWSP [NMD4 C-terminal 12 aa] | 0.7031 ± 0.004 | 0.714 ± 0.0047
81 | YAVFTVLFSIIF [SPS2 C-terminal 12 aa] | 0.297 ± 0.013 | 0.295 ± 0.0078
82 | YCFYINCIMNRR [RRT15 C-terminal 12 aa] | 0.658 ± 0.031 | 0.551 ± 0.00072
